Data published in PMC10672034, “Characterization of a Type II L-Asparaginase from the Halotolerant Bacillus subtilis CH11” (Life, 2023).

B1: L-ASNasaZP21 (type II L-asparaginase, ansZP21) (Bacillus subtilis subsp. subtilis str. 168; S21P) (protein)
chain: PHSPETKESPKEKAQTQKVSSASASEKKDLPNIRILATGGTIAGADQSKTSTTEYKAGVVGVESLIEAVPEMKDIANVSGEQIVNVGSTNIDNKILLKLAKRINHLLASDDVDGIVVTHGTDTLEETAYFLNLTVKSDKPVVIVGSMRPSTAISADGPSNLYNAVKVAGAPEAKGKGTLVVLNDRIASARYVTKTNTTTTDTFKSEEMGFVGTIADDIYFNNEITRKHTKDTDFSVSNLDELPQVDIIYGYQNDGSYLFDAAVKAGAKGIVFAGSGNGSLSDAAEKGADSAVKKGVTVVRSTRTGNGVVTPNQDYAEKDLLASNSLNPQKARMLLMLALTKTNDPQKIQAYFNEY
notes: signal peptide and Cys20 (first 60 bp) removed; E. coli BL21(DE3)pLysS; homotetramer 155 kDa; forward primer encodes …

Assays:
[1] = biological target: L-ASNasaZP21 (N-terminally truncated type II L-asparaginase of Bacillus subtilis CH11) (Bacillus subtilis CH11) (UniProt O34482); assay: SEC; HiPrep 16/60 Sephacryl S-200 HR, 50 mM Tris-HCl, 100 mM NaCl, pH 8.5, 0.5 mL/min; molecular weight from a standard curve (Protein Standard Mix 15-600 kDa), semi-log graph
[2] = substrate: NC(=O)C[C@H](N)C(=O)O; assay: Nessler ammonia assay, Lineweaver-Burk plot; assay type: biochemical, Bacillus subtilis; conditions: pH 9, 60 °C, 10 min, 2-14 mM substrate

Molecule	stoichiometry N [1]	Km [2] [mM]
L-ASNasaZP21 (N-terminally truncated type II L-asparaginase of Bacillus subtilis CH11) (from UniProt O34482 21-375) (enzyme)	4	
B1		4.75
